One may read the Kd as the concentration at which binding is half-saturated. Low readings indicate a tighter complex, high ones a looser complex. Broadly, the koff is the rate constant with which the complex falls apart. A low value points to a long-lived complex. Broadly, the kon is the second-order rate constant of association. Low readings indicate slower complex formation, high ones faster complex formation.

Results on three molecules are retold here after publication PMC10640585, “The E3 ligase Riplet promotes RIG-I signaling independent of RIG-I oligomerization” (Nature Communications, 2023).

For one data set, the target named is T1, RIG-I;Riplet (human;human, UniProt O95786;Q8IUD6 1-925;1-432, |).
T1 sequence 1: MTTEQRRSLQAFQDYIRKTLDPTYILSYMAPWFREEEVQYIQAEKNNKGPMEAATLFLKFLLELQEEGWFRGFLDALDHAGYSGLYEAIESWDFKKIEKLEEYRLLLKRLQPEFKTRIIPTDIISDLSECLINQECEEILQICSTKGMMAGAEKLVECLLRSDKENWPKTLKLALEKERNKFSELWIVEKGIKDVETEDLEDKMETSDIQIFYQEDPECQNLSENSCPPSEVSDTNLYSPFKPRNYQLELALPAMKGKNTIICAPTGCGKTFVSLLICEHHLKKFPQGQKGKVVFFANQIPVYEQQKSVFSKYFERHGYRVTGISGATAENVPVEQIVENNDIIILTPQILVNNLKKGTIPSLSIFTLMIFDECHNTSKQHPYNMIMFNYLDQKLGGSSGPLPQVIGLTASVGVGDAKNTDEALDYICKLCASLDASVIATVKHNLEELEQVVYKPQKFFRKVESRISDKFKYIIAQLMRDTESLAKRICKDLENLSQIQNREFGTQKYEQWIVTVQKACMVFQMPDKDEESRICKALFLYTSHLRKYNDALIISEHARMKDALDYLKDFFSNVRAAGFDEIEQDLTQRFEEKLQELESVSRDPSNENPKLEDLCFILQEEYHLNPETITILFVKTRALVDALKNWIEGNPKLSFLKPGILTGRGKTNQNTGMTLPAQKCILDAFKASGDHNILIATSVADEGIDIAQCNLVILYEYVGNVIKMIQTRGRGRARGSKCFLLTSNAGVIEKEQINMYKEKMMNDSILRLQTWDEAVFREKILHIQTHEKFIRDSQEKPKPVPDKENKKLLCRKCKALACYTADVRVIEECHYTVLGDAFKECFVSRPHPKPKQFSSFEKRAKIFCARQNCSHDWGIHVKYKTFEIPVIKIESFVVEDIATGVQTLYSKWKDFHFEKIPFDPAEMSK
T1 sequence 2: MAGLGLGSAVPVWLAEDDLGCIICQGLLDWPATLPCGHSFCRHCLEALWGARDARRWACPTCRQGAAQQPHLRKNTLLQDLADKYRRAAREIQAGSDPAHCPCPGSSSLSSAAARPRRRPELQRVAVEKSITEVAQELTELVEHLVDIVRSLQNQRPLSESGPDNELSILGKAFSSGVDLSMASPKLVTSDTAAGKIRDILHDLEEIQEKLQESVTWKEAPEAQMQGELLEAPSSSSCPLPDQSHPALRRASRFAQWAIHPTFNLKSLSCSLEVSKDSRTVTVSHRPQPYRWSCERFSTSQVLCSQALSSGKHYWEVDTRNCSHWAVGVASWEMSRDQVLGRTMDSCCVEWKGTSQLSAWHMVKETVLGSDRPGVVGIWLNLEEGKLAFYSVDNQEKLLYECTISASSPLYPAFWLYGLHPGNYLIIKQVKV
In words: cryo-EM; end-end complex, 2 RIG-I:1 RNA:1 Riplet dimer, 3.2 A; EMSA: RNA + RIG-I 30 min RT, then Riplet 30 min RT, 6% native PAGE, GelRed; protein storage buffer 25 mM HEPES pH 7.4, 200 mM NaCl, 5% glycerol, 5 mM BME (bindi). As to conditions: protein: recombinant;recombinant, tags: N-terminal 6xHis-SUMO, removed by ULP1;N-terminal 6xHis-SUMO, chain copies: 2;2, blunt. (In general: In EMSA bound probe runs differently from free probe, usually more slowly.)

The target in data set [1] is T2, biotinylated Avi-tagged RIG-I (Retinoic acid inducible gene-I) (human, UniProt O95786 1-925, biotin on the Avi tag (by BirA)).
T2 construct: RIG-I, human, full-length protein; Used alone (apo), pre-incubated with the RNA p3SLR14 (one RIG-I per RNA) or with p3dsRNA24 (two RIG-I per RNA); also called Avi-RIG-I; Apo-RIG-I; source: E. coli Rosetta 2(DE3), purified (Ni-NTA, heparin, SEC), biotinylated by BirA, SEC; not shown: His6, N-terminal, cleaved; SUMO, N-terminal, cleaved
T2 sequence (looked up): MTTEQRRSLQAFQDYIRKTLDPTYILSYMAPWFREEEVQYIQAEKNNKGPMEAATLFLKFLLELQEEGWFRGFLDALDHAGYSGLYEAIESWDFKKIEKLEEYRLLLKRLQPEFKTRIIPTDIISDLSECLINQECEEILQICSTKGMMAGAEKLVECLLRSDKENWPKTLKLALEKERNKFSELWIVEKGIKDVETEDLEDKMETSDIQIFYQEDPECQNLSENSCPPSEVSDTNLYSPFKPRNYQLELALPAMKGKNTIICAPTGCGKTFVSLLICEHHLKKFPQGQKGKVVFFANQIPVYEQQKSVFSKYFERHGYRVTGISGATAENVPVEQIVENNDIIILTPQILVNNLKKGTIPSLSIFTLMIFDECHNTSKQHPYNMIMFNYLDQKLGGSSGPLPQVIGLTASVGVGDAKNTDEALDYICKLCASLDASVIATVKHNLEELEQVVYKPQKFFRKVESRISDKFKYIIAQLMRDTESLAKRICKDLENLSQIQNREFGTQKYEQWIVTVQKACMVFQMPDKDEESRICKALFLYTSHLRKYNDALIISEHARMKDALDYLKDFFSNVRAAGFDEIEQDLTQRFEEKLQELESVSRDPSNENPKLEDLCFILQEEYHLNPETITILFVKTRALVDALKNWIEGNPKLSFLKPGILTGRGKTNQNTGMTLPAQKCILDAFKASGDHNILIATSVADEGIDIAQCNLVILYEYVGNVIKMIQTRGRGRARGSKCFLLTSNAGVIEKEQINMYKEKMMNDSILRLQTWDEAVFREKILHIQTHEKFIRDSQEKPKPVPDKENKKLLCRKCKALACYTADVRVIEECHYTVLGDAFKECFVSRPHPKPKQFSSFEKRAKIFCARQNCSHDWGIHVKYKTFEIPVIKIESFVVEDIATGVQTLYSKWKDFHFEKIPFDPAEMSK
In words: SPR; biotinylated RIG-I pre-incubated with p3SLR14 (1:1.5, 4 °C overnight) immobilised on a streptavidin SADH chip; Riplet constructs as analyte in HBS-EP+, 50 µl/min, dissociation 180 s, OneStep mode, 1:1 model. As to conditions: both partners purified. (SPR reads the build-up and loss of mass on a sensor chip optically.)

The target of data set [2] is T2, biotinylated Avi-tagged RIG-I (Retinoic …). In words: SPR; biotinylated apo-RIG-I (no RNA) immobilised on a streptavidin SADH chip; Riplet constructs as analyte in HBS-EP+, 50 µl/min, dissociation 180 s, OneStep mode, 1:1 model. As to conditions: both partners purified.
For data set [3] the target is unchanged. The experiment in a line: SPR; biotinylated RIG-I pre-incubated with p3dsRNA24 (2.4:1, 4 °C overnight; two RIG-I per RNA) immobilised on a streptavidin SADH chip; Riplet constructs as analyte in HBS-EP+, 50 µl/min, dissociation 180 s, OneStep mode, 1:1 model. As to conditions: both partners purified.
Data set [4] deals with T3, biotinylated Avi-tagged RIG-I (human, UniProt O95786 1-925, biotin on the Avi tag (by BirA)).
T3 construct: RIG-I (Retinoic acid inducible gene-I), human, full-length; Immobilised on the SPR chip as apo protein or pre-incubated with p3SLR14 (1:1.5) or p3dsRNA24 (2.4:1; two RIG-I on one RNA); also called Avi-RIG-I; biotinylated RIG-I; source: E. coli Rosetta 2(DE3), purified (Ni-NTA, ULP1, heparin, size exclusion), biotinylated by BirA, size exclusion; not shown: 6xHis, N-terminal, cleaved; SUMO, …
T3 sequence (looked up): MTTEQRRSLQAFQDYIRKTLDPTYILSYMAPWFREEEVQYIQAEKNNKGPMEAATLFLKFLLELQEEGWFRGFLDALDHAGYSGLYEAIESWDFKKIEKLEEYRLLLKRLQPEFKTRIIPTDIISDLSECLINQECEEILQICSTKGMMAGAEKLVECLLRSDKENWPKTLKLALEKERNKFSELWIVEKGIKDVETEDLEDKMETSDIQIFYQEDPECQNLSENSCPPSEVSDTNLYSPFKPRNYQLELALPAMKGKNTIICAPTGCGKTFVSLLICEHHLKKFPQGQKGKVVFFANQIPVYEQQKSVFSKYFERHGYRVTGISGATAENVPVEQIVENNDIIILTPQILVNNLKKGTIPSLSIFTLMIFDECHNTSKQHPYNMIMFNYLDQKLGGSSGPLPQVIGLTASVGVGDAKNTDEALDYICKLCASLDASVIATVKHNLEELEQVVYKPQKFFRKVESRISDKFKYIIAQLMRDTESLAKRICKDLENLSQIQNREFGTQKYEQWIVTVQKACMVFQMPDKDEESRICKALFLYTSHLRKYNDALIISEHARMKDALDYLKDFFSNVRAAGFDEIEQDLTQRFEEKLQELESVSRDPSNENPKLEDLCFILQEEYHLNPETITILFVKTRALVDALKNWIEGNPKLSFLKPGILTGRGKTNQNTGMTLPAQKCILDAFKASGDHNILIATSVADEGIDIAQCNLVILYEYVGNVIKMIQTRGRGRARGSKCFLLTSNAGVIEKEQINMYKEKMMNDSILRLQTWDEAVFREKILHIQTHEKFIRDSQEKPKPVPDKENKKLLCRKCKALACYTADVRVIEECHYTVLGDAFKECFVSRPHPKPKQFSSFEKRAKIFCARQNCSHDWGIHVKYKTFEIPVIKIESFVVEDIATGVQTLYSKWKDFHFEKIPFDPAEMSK
The experiment in a line: SPR; biotinylated RIG-I pre-incubated with p3dsRNA24 (2.4:1, 4 °C overnight; two RIG-I on one RNA) immobilised on streptavidin SADH chip; Riplet constructs 0.125-10 µM in HBS-EP+, 50 µl/min, dissociation 180 s, OneStep mode, 1:1 model. As to conditions: both partners purified.

B1: p3dsRNA24 (dsRNA)
RNA 1: GGACGUACGUUUCGCGACUGUAGA
RNA 2: UCUACAGUCGCGAAACGUACGUCC
modifications: 5'-triphosphate on both strands
On to B1, for which the binding result in the data set with RIG-I;Riplet is “binds”.

B2: Riplet-PrySpry (249-432) (domain or fragment, human, UniProt Q8IUD6 249-432, looked up)
chain: RRASRFAQWAIHPTFNLKSLSCSLEVSKDSRTVTVSHRPQPYRWSCERFSTSQVLCSQALSSGKHYWEVDTRNCSHWAVGVASWEMSRDQVLGRTMDSCCVEWKGTSQLSAWHMVKETVLGSDRPGVVGIWLNLEEGKLAFYSVDNQEKLLYECTISASSPLYPAFWLYGLHPGNYLIIKQVKV
notes: Riplet, human, PrySpry domain, residues 249-432; also called Pspry; source: E. coli Rosetta 2(DE3), purified (Ni-NTA, SEC); not shown: His6, N-terminal, cleaved; SUMO, N-terminal, cleaved
Regarding B2, the figures for the Kd in data set [1] and in data set [2] were 3.6 µM and 3.1 µM, respectively. Also, the results for the koff in data set [1], in data set [2] and in data set [3] were 0.18 s⁻¹, 0.18 s⁻¹ and 0.19 s⁻¹, respectively. For the same molecule, the values for the on-rate constant (kon) in data set [1], in data set [2] and in data set [3] were 51000 M⁻¹ s⁻¹, 60000 M⁻¹ s⁻¹ and 130000 M⁻¹ s⁻¹, respectively.

B3: Riplet-PrySpry (249-432) (domain or fragment, human, UniProt Q8IUD6 249-432, looked up)
chain: RRASRFAQWAIHPTFNLKSLSCSLEVSKDSRTVTVSHRPQPYRWSCERFSTSQVLCSQALSSGKHYWEVDTRNCSHWAVGVASWEMSRDQVLGRTMDSCCVEWKGTSQLSAWHMVKETVLGSDRPGVVGIWLNLEEGKLAFYSVDNQEKLLYECTISASSPLYPAFWLYGLHPGNYLIIKQVKV
notes: Riplet, human, PrySpry domain, residues 249-432 (RING and CC domains deleted); pET-SUMO-Riplet-PrySpry(249-432); the PDB entries are of the full-length parent; also called PrySpry domain alone; source: E. coli Rosetta 2(DE3), purified (Ni-NTA, ULP1 digestion, size exclusion); not shown: 6xHis, N-terminal, cleaved; SUMO, N-terminal, cleaved
Take B3: in data set [4], the dissociation constant Kd amounted to 1.4 µM.
